Test results from patent US6864224 (BROWN UNIVERSITY RESEARCH FOUNDATION, dated 2005).

Biological target: endogenous Raf-1 of Rat-1 cells (rat (Rat-1 cells), UniProt P11345 1-648)
Assay: co-immunoprecipitation of endogenous proteins with RKIP antiserum
Text: For co-precipitation experiments of endogenous proteins, 2 ×10^7 Rat-1 cells were lysed by sonication in PBS, and the immunoprecipitates were washed 4 times with PBS.

- binding result: binds
B1: endogenous RKIP of Rat-1 cells (other, rat (Rat-1 cells), UniProt P31044 2-187, looked up)
chain: AADISQWAGPLSLQEVDEPPQHALRVDYGGVTVDELGKVLTPTQVMNRPSSISWDGLDPGKLYTLVLTDPDAPSRKDPKFREWHHFLVVNMKGNDISSGTVLSEYVGSGPPKDTGLHRYVWLVYEQEQPLNCDEPILSNKSGDNRGKFKVESFRKKYHLGAPVAGTCFQAEWDDSVPKLHDQLAGK
notes: Endogenous protein in cell lysates
